In the supplement of paper PMC9732359:
± gives the uncertainty stated by the source.

Assay: protein stability index of a GFP-peptide fusion (yeast GPS) (PSI 1-4); higher = more stable; sorted into four equal gates, so the index is relative within each strain
Settings: san1∆
Method in brief: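 Plasmids isolated from each sorting gate were PCR-amplified and Illumina-sequenced, and barcodes assigned the reads to strains. The gates, four of equal size, were set by GFP/Cherry fluorescence ratio on mid-log cultures in leucine-free medium. These cultures were yeast carrying a pooled library of tiled 17-residue yeast protein peptides fused downstream of GFP on a plasmid that also expresses Cherry. The protein stability index is the sum of every gate's read frequency times its gate number.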

Sequence | protein stability index
VLVDEIKSQYYSRISKL [YIL149C/MLP2] | 2.3 ± 0.058

Same assay, conditions: ubr1∆

Sequence | protein stability index
TTIGDTTDKNTTDDKSM [BRN1] | 3.27 ± 0.043
TTIKAIFDGNYGESDIH [YMR129W/POM152] | 2.89 ± 0.12
TTKILGDKILGNLYSKV [YML103C/NUP188] | 2.75 ± 0.051
TTKMWPTNCPLRQFKTC [BRR2] | 2.34 ± 0.086
TTMFENTGWSCSRIIKI [RGR1] | 3.51 ± 0.1
TTNLDIDLLTFQYGSRL [RPP1] | 2.98 ± 0.055
TTTATPHANPITHAHSL [PGD1] | 3.003 ± 0.029
TTTMLQLFSTFDRLNGN [SSN2] | 3.02 ± 0.041
TTVITVFLEFSLNFIPI [YML103C/NUP188] | 1.58 ± 0.023
TTVYRYSAAKKIPDTYT [YAR002W/NUP60] | 1.45 ± 0.077
TVENPLRNWEELNIIPR [PRP28] | 1.77 ± 0.046
TVFFLIRVAETRGGASA [YJL039C/NUP192] | 2.13 ± 0.047
TVFLPMVGLVDPDKLKP [RPT5] | 2.44 ± 0.062
TVHSKSRTRAHAQSKRE [RPL19A] | 3.19 ± 0.069
TVIPEDEEIIQLHFSLL [RPO21] | 2.56 ± 0.086
TVKENESDSKLQCHISG [UBP6] | 3.15 ± 0.1
TVQLTFLIDVLKIYAQI [YCG1] | 1.7 ± 0.042
TVRLVNLFSSTGFKGLL [SRB2] | 2.9 ± 0.039
TVTNSKFRSSILRKSFD [RPN2] | 3.31 ± 0.091
TYEAIEITDAYCFAKND [YMR129W/POM152] | 3.01 ± 0.045
TYPAGFMDVITLDATNE [RPS4A] | 2.95 ± 0.063
VACLFITISIHGKPTKG [SSN8] | 1.5 ± 0.11
VAEKMNGCSGADVKGVC [RPT6] | 3.07 ± 0.11
VAESFTDEADSSMTEAS [SNF2] | 3.14 ± 0.096
VAGGKKALAIFVPVPSL [RPS7A] | 1.54 ± 0.043
VANVKDLETLTMHTKTY [RPL32] | 2.95 ± 0.077

Sequence | protein stability index
VDDAIELALKTLSKTTD [PRE9] | 2.64 ± 0.057
VDEEDENGTHNDEVNED [YCG1] | 3.51 ± 0.077
VDENGDPIWQHQSLGPD [RET1] | 3.27 ± 0.084
VDIVNQWFLQYQNQFVE [YML103C/NUP188] | 2.29 ± 0.042
VDLIEKFLRYNPLEKRD [RPB10] | 3.11 ± 0.041
VDNSPTTESNSRLKALN [YLR335W/NUP2] | 2.97 ± 0.059
VDNVWADVYAKALEGKD [RPP1B] | 3.06 ± 0.11
VDPEQEAHNKALNQFKR [RPT4] | 3.02 ± 0.14
VDPIQSVKGKVVIDAFR [RPN11] | 2.26 ± 0.081
VDPKRLAMVIIKEFVDD [DSN1] | 3.1 ± 0.066
VDSISLHKIFYKVLKNN [YCG1] | 2.3 ± 0.042
VDSRATAGNWVASQTVK [PRE2] | 3.26 ± 0.066
VDVNNKFIALCEQQPSQ [SIN4] | 3 ± 0.059
VEAGMIALRNGQSSVKH [RPT5] | 2.6 ± 0.11
VEASRRRRSSTNKSKRP [MED1] | 3.28 ± 0.043
VEFINKMENFEFLPLSL [SRB8] | 3.16 ± 0.097
VEIAFLFRAIYLYCLDN [YCG1] | 1.2 ± 0.05
VEIIDQKKVLIDGPKAG [RPL14A] | 2.72 ± 0.065
VEKLGKKMEARGQSIWV [RPN9] | 1.51 ± 0.14
VELHGKRKLDIGKDTFV [PRP8] | 2.21 ± 0.11
VENDTFIERNFTPQEIE [FAS2] | 3.18 ± 0.05
VENSVLIEKVDDTAANN [YIL149C/MLP2] | 2.79 ± 0.088
VENWIIDDKGVLMERKD [ITC1] | 2.7 ± 0.1
VENYETSSAFFYQQVHK [SIR4] | 2.52 ± 0.03
VEVCLADLQGSEDHSFR [RPS1A] | 3.25 ± 0.19
VEWNDQVEKLGKKMEAR [RPN9] | 3.34 ± 0.14

Sequence | protein stability index
VFGFRANKMRQDRLSDL [SMC4] | 2.74 ± 0.081
VFGISKTSSGSYNYVEN [ITC1] | 3.28 ± 0.041
VFHDPDHSMILPSGVLS [SMC3] | 2 ± 0.047
VFSALKNLISRINTLPQ [ECM29] | 2.71 ± 0.051
VFVKKHHELIKVKHDSQ [SSN2] | 1.35 ± 0.051
VFYAELNEFFTRELAEE [RPS3] | 3.28 ± 0.082
VGACTDEEMTISQKLHD [RRP43] | 3.12 ± 0.059
VGFGESNFTSIIGPNGS [SMC1] | 3.07 ± 0.054
VGGCKDQIEKLREVVEL [RPT1] | 3.33 ± 0.061
VGLKNYDPQRDKRFSGS [RPL1A] | 3.25 ± 0.061
VGLVSPSFMLKHHQLFY [RPN1] | 1.4 ± 0.062
VGRQDPKKHLSETADET [RPN11] | 2.92 ± 0.078
VGVDQLSIELEGGKNQA [YJL039C/NUP192] | 2.46 ± 0.14
VGVIIFILTIATAFLGY [COB] | 2.63 ± 0.039
VHDKVLEDMVFPTEIVG [RPS7B] | 3.06 ± 0.054
VHDLNKYKSNTNNMEKI [SMC2] | 3.47 ± 0.24
VHELSKRVHTLLTLIVR [ISW2] | 1.37 ± 0.041
VHNTNSFIISSLDTLEL [NUT1] | 2.54 ± 0.07
VHPDYLYGAITEDRYNE [FAS2] | 1.27 ± 0.086
VHPIPDVAFADGGKTLR [YMR129W/POM152] | 2.63 ± 0.051
VIAKLNHNQFECKGCDN [RPB2] | 3.01 ± 0.097
VIEQCYLKFIPLKRAIW [SRB8] | 1.32 ± 0.042
VIGGNSLFHIVVDTEET [SMC3] | 2.53 ± 0.06
VILFDSDWNPQADLQAM [ISW2] | 2.15 ± 0.057
VILKQILQILDQDELVQ [SWP82] | 2.5 ± 0.06
VINKLDRLILDLKLPPM [SNU114] | 2.14 ± 0.1

Sequence | protein stability index
VINPQQLLKGLSLSFSK [DSN1] | 3.12 ± 0.1
VIPIRRGYWGTNLGQPH [RPS2] | 1.79 ± 0.13
VIQIVTGIFMAMHYSSN [COB] | 1.46 ± 0.088
VIRMVVLTAAGVERLIF [PRE3] | 3.17 ± 0.14
VITIKSRIRVKIEGCIS [RPB7] | 2.07 ± 0.064
VIVLSNISHLLEIASSI [SWI1] | 1.8 ± 0.041
VIVPLSTLSNWSSEFAK [SNF2] | 2.6 ± 0.038
VKEQTEAAKKSEKKAKK [RPL34A] | 3.31 ± 0.067
VKGTNISEKDLVPKRCL [RPO31] | 3.12 ± 0.09
VKKLEIQQHARYDCSFC [RPL43A] | 3.3 ± 0.092
VKPISIEAPQFYRYWSA [SWI3] | 2.02 ± 0.032
VKQVLLSVEIGVLTDIS [NUT1] | 1.64 ± 0.066
VKWQYDPNNPVDFDGLD [SNF12] | 2.87 ± 0.03
VLCNSNISKSRAKPVTN [RRP6] | 2.14 ± 0.067
VLDVDPKYAKQKDKSDT [ISW2] | 3.03 ± 0.084
VLEERERGQKVKNVKNS [ARP9] | 1.19 ± 0.074
VLEKYEVIGYIAAGTYG [SSN3] | 1.28 ± 0.075
VLEQLSGQTPVQSKARY [RPL11A] | 3.15 ± 0.088
VLKCLKSLESQRYVKSV [RPC34] | 1.91 ± 0.07
VLKKKNIQKKQPAKEKG [RRP6] | 3.22 ± 0.044
VLKYMLLSKIMLNLIDD [RPN6] | 1.66 ± 0.045
VLQYSDWESDLHIHLNQ [YDL116W/NUP84] | 3.04 ± 0.081
VLVDEIKSQYYSRISKL [YIL149C/MLP2] | 2.29 ± 0.034
